B1: CE115HA000 N31Y (antibody, human IgG1, kappa, L234A L235A, N297A, name in Kabat numbering)
heavy: QVQLVESGGGVVQPGRSLRLSCAASGFTFSYAWMHWVRQAPGKGLEWVAQIKAKSNNYATYYAESVKGRFTISRDDSKNSLYLQMNSLKTEDTAVYYCRYVHYGAYYGVDAWGQGTTVTVSSASTKGPSVFPLAPSSKSTSGGTAALGCLVKDYFPEPVTVSWNSGALTSGVHTFPAVLQSSGLYSLSSVVTVPSSSLGTQTYICNVNHKPSNTKVDKKVEPKSCDKTHTCPPCPAPEAAGGPSVFLFPPKPKDTLMISRTPEVTCVVVDVSHEDPEVKFNWYVDGVEVHNAKTKPREEQYASTYRVVSVLTVLHQDWLNGKEYKCKVSNKALPAPIEKTISKAKGQPREPQVYTLPPSRCELTKNQVSLSCAVKGFYPSDIAVEWESNGQPENNYKTTPPVLDSDGSFFLVSKLTVDKSRWQQGNVFSCSVMHEALHNHYTQKSLSLSPDYKDDDDK
chain: EPKSSDKTHTCPPCPAPELLGGPSVFLFPPKPKDTLMISRTPEVTCVVVDVSHEDPEVKFNWYVDGVEVHNAKTKPREEQYNSTYRVVSVLTVLHQDWLNGKEYKCKVSNKALPAPIEKTISKAKGQPREPQVCTLPPSRDELTKNQVSLWCLVKGFYPSDIAVEWESNGQPENNYKTTPPVLDSDGSFFLYSKLTVDKSRWQQGNVFSCSVMHEALHNRYTQKSLSLSP
light: DIVMTQSPLSLPVTPGEPASISCRSSQSLVHSNRNTYLHWYQQKPGQAPRLLIYKVSNRFSGVPDRFSGSGSGTDFTLKISRVEAEDVGVYYCGQGTQVPYTFGQGTKLEIKRTVAAPSVFIFPPSDEQLKSGTASVVCLLNNFYPREAKVQWKVDNALQSGNSQESVTEQDSKDSTYSLSSTLTLSKADYEKHKVYACEVTHQGLSSPVTKSFNRGEC
notes: one-arm antibody
B2: CE115HA000 N53I (antibody, human IgG1, kappa, L234A L235A, N297A, name in Kabat numbering)
heavy: QVQLVESGGGVVQPGRSLRLSCAASGFTFSNAWMHWVRQAPGKGLEWVAQIKAKSINYATYYAESVKGRFTISRDDSKNSLYLQMNSLKTEDTAVYYCRYVHYGAYYGVDAWGQGTTVTVSSASTKGPSVFPLAPSSKSTSGGTAALGCLVKDYFPEPVTVSWNSGALTSGVHTFPAVLQSSGLYSLSSVVTVPSSSLGTQTYICNVNHKPSNTKVDKKVEPKSCDKTHTCPPCPAPEAAGGPSVFLFPPKPKDTLMISRTPEVTCVVVDVSHEDPEVKFNWYVDGVEVHNAKTKPREEQYASTYRVVSVLTVLHQDWLNGKEYKCKVSNKALPAPIEKTISKAKGQPREPQVYTLPPSRCELTKNQVSLSCAVKGFYPSDIAVEWESNGQPENNYKTTPPVLDSDGSFFLVSKLTVDKSRWQQGNVFSCSVMHEALHNHYTQKSLSLSPDYKDDDDK
chain: EPKSSDKTHTCPPCPAPELLGGPSVFLFPPKPKDTLMISRTPEVTCVVVDVSHEDPEVKFNWYVDGVEVHNAKTKPREEQYNSTYRVVSVLTVLHQDWLNGKEYKCKVSNKALPAPIEKTISKAKGQPREPQVCTLPPSRDELTKNQVSLWCLVKGFYPSDIAVEWESNGQPENNYKTTPPVLDSDGSFFLYSKLTVDKSRWQQGNVFSCSVMHEALHNRYTQKSLSLSP
light: DIVMTQSPLSLPVTPGEPASISCRSSQSLVHSNRNTYLHWYQQKPGQAPRLLIYKVSNRFSGVPDRFSGSGSGTDFTLKISRVEAEDVGVYYCGQGTQVPYTFGQGTKLEIKRTVAAPSVFIFPPSDEQLKSGTASVVCLLNNFYPREAKVQWKVDNALQSGNSQESVTEQDSKDSTYSLSSTLTLSKADYEKHKVYACEVTHQGLSSPVTKSFNRGEC
notes: one-arm antibody
B3: CE115HA000 N53D (antibody, human IgG1, kappa, L234A L235A, N297A, name in Kabat numbering)
heavy: QVQLVESGGGVVQPGRSLRLSCAASGFTFSNAWMHWVRQAPGKGLEWVAQIKAKSDNYATYYAESVKGRFTISRDDSKNSLYLQMNSLKTEDTAVYYCRYVHYGAYYGVDAWGQGTTVTVSSASTKGPSVFPLAPSSKSTSGGTAALGCLVKDYFPEPVTVSWNSGALTSGVHTFPAVLQSSGLYSLSSVVTVPSSSLGTQTYICNVNHKPSNTKVDKKVEPKSCDKTHTCPPCPAPEAAGGPSVFLFPPKPKDTLMISRTPEVTCVVVDVSHEDPEVKFNWYVDGVEVHNAKTKPREEQYASTYRVVSVLTVLHQDWLNGKEYKCKVSNKALPAPIEKTISKAKGQPREPQVYTLPPSRCELTKNQVSLSCAVKGFYPSDIAVEWESNGQPENNYKTTPPVLDSDGSFFLVSKLTVDKSRWQQGNVFSCSVMHEALHNHYTQKSLSLSPDYKDDDDK
chain: EPKSSDKTHTCPPCPAPELLGGPSVFLFPPKPKDTLMISRTPEVTCVVVDVSHEDPEVKFNWYVDGVEVHNAKTKPREEQYNSTYRVVSVLTVLHQDWLNGKEYKCKVSNKALPAPIEKTISKAKGQPREPQVCTLPPSRDELTKNQVSLWCLVKGFYPSDIAVEWESNGQPENNYKTTPPVLDSDGSFFLYSKLTVDKSRWQQGNVFSCSVMHEALHNRYTQKSLSLSP
light: DIVMTQSPLSLPVTPGEPASISCRSSQSLVHSNRNTYLHWYQQKPGQAPRLLIYKVSNRFSGVPDRFSGSGSGTDFTLKISRVEAEDVGVYYCGQGTQVPYTFGQGTKLEIKRTVAAPSVFIFPPSDEQLKSGTASVVCLLNNFYPREAKVQWKVDNALQSGNSQESVTEQDSKDSTYSLSSTLTLSKADYEKHKVYACEVTHQGLSSPVTKSFNRGEC
notes: one-arm antibody
B4: CE115HA000 N53A (antibody, human IgG1, kappa, L234A L235A, N297A, name in Kabat numbering)
heavy: QVQLVESGGGVVQPGRSLRLSCAASGFTFSNAWMHWVRQAPGKGLEWVAQIKAKSANYATYYAESVKGRFTISRDDSKNSLYLQMNSLKTEDTAVYYCRYVHYGAYYGVDAWGQGTTVTVSSASTKGPSVFPLAPSSKSTSGGTAALGCLVKDYFPEPVTVSWNSGALTSGVHTFPAVLQSSGLYSLSSVVTVPSSSLGTQTYICNVNHKPSNTKVDKKVEPKSCDKTHTCPPCPAPEAAGGPSVFLFPPKPKDTLMISRTPEVTCVVVDVSHEDPEVKFNWYVDGVEVHNAKTKPREEQYASTYRVVSVLTVLHQDWLNGKEYKCKVSNKALPAPIEKTISKAKGQPREPQVYTLPPSRCELTKNQVSLSCAVKGFYPSDIAVEWESNGQPENNYKTTPPVLDSDGSFFLVSKLTVDKSRWQQGNVFSCSVMHEALHNHYTQKSLSLSPDYKDDDDK
chain: EPKSSDKTHTCPPCPAPELLGGPSVFLFPPKPKDTLMISRTPEVTCVVVDVSHEDPEVKFNWYVDGVEVHNAKTKPREEQYNSTYRVVSVLTVLHQDWLNGKEYKCKVSNKALPAPIEKTISKAKGQPREPQVCTLPPSRDELTKNQVSLWCLVKGFYPSDIAVEWESNGQPENNYKTTPPVLDSDGSFFLYSKLTVDKSRWQQGNVFSCSVMHEALHNRYTQKSLSLSP
light: DIVMTQSPLSLPVTPGEPASISCRSSQSLVHSNRNTYLHWYQQKPGQAPRLLIYKVSNRFSGVPDRFSGSGSGTDFTLKISRVEAEDVGVYYCGQGTQVPYTFGQGTKLEIKRTVAAPSVFIFPPSDEQLKSGTASVVCLLNNFYPREAKVQWKVDNALQSGNSQESVTEQDSKDSTYSLSSTLTLSKADYEKHKVYACEVTHQGLSSPVTKSFNRGEC
notes: one-arm antibody
B5: CE115HA000 N53G (antibody, human IgG1, kappa, L234A L235A, N297A, name in Kabat numbering)
heavy: QVQLVESGGGVVQPGRSLRLSCAASGFTFSNAWMHWVRQAPGKGLEWVAQIKAKSGNYATYYAESVKGRFTISRDDSKNSLYLQMNSLKTEDTAVYYCRYVHYGAYYGVDAWGQGTTVTVSSASTKGPSVFPLAPSSKSTSGGTAALGCLVKDYFPEPVTVSWNSGALTSGVHTFPAVLQSSGLYSLSSVVTVPSSSLGTQTYICNVNHKPSNTKVDKKVEPKSCDKTHTCPPCPAPEAAGGPSVFLFPPKPKDTLMISRTPEVTCVVVDVSHEDPEVKFNWYVDGVEVHNAKTKPREEQYASTYRVVSVLTVLHQDWLNGKEYKCKVSNKALPAPIEKTISKAKGQPREPQVYTLPPSRCELTKNQVSLSCAVKGFYPSDIAVEWESNGQPENNYKTTPPVLDSDGSFFLVSKLTVDKSRWQQGNVFSCSVMHEALHNHYTQKSLSLSPDYKDDDDK
chain: EPKSSDKTHTCPPCPAPELLGGPSVFLFPPKPKDTLMISRTPEVTCVVVDVSHEDPEVKFNWYVDGVEVHNAKTKPREEQYNSTYRVVSVLTVLHQDWLNGKEYKCKVSNKALPAPIEKTISKAKGQPREPQVCTLPPSRDELTKNQVSLWCLVKGFYPSDIAVEWESNGQPENNYKTTPPVLDSDGSFFLYSKLTVDKSRWQQGNVFSCSVMHEALHNRYTQKSLSLSP
light: DIVMTQSPLSLPVTPGEPASISCRSSQSLVHSNRNTYLHWYQQKPGQAPRLLIYKVSNRFSGVPDRFSGSGSGTDFTLKISRVEAEDVGVYYCGQGTQVPYTFGQGTKLEIKRTVAAPSVFIFPPSDEQLKSGTASVVCLLNNFYPREAKVQWKVDNALQSGNSQESVTEQDSKDSTYSLSSTLTLSKADYEKHKVYACEVTHQGLSSPVTKSFNRGEC
notes: one-arm antibody
B6: CE115HA000 N53H (antibody, human IgG1, kappa, L234A L235A, N297A, name in Kabat numbering)
heavy: QVQLVESGGGVVQPGRSLRLSCAASGFTFSNAWMHWVRQAPGKGLEWVAQIKAKSHNYATYYAESVKGRFTISRDDSKNSLYLQMNSLKTEDTAVYYCRYVHYGAYYGVDAWGQGTTVTVSSASTKGPSVFPLAPSSKSTSGGTAALGCLVKDYFPEPVTVSWNSGALTSGVHTFPAVLQSSGLYSLSSVVTVPSSSLGTQTYICNVNHKPSNTKVDKKVEPKSCDKTHTCPPCPAPEAAGGPSVFLFPPKPKDTLMISRTPEVTCVVVDVSHEDPEVKFNWYVDGVEVHNAKTKPREEQYASTYRVVSVLTVLHQDWLNGKEYKCKVSNKALPAPIEKTISKAKGQPREPQVYTLPPSRCELTKNQVSLSCAVKGFYPSDIAVEWESNGQPENNYKTTPPVLDSDGSFFLVSKLTVDKSRWQQGNVFSCSVMHEALHNHYTQKSLSLSPDYKDDDDK
chain: EPKSSDKTHTCPPCPAPELLGGPSVFLFPPKPKDTLMISRTPEVTCVVVDVSHEDPEVKFNWYVDGVEVHNAKTKPREEQYNSTYRVVSVLTVLHQDWLNGKEYKCKVSNKALPAPIEKTISKAKGQPREPQVCTLPPSRDELTKNQVSLWCLVKGFYPSDIAVEWESNGQPENNYKTTPPVLDSDGSFFLYSKLTVDKSRWQQGNVFSCSVMHEALHNRYTQKSLSLSP
light: DIVMTQSPLSLPVTPGEPASISCRSSQSLVHSNRNTYLHWYQQKPGQAPRLLIYKVSNRFSGVPDRFSGSGSGTDFTLKISRVEAEDVGVYYCGQGTQVPYTFGQGTKLEIKRTVAAPSVFIFPPSDEQLKSGTASVVCLLNNFYPREAKVQWKVDNALQSGNSQESVTEQDSKDSTYSLSSTLTLSKADYEKHKVYACEVTHQGLSSPVTKSFNRGEC
notes: one-arm antibody

T1 sequence (P07766 23-126): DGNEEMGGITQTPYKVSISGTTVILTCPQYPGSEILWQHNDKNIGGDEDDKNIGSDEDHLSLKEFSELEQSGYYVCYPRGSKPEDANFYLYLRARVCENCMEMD

This test concerns the target T1, CD3 epsilon homodimer protein (UniProt P07766 23-126).
T1 construct: also called CD3 (CD3 epsilon)
Briefly: SPR, CD3 epsilon homodimer on chip, one-arm antibody as analyte.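 Further: surface plasmon resonance at 25 °C with CD3 epsilon homodimer amine-coupled to a CM4 sensor chip, antibody injected as analyte, HBS-EP+ as running buffer.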
In the case of B1, the “KD ratio (KD of CE115HA000/KD of altered form)” value (“KD ratio” below) was 1.1. Under B2 stands 0.57; under B3, 0.55. In the case of B4, the “KD ratio” value worked out at 0.55. As to B5, the “KD ratio” value is 0.95. In the case of B6, the “KD ratio” value is 0.55.
